Results from patent publication US9958461B2, “Detection of protein to protein interactions” (THE GOVERNING COUNCIL OF THE UNIVERSITY OF TORONTO, priority 2013, dated 2018).

What was measured:
[1] = target: T1, EGFR-L858R (Homo sapiens, UniProt P00533, L858R); assay: MaMTH EGFR-interactor screen, lentiviral preys against EGFR-L858R bait (interaction score); format: cell-based; conditions: MaMTH interaction score of prey with EGFR-L858R bait
T1 construct: with the advantage of testing full-length integral membrane proteins; (GGGGS)2 linker-Cub (human ubiquitin aa 35-76)-GAL4(1-147)-mNFkB(364-550) (C); expressed in transfected cells
Method: (§1) After lentivirus harvest, target cells (stable 5×GAL4UAS-luciferase reporter-HEK293T cells) were infected at a multiplicity of infection (MOI) of around 0.3-0.4 to ensure single copy integration per cell. Cells were selected in puromycin for at least 48 h and transfected with either EGFR-wildtype or EGFR-L858R baits in triplicates. 24 h after transfection, cells were lysed and luciferase assays performed. On each set of interaction assays, various negative controls were included. To calculate a MaMTH-interaction scores, negative controls were averaged and the fold-change of luciferase activity compared to the averaged controls was calculated and defined as the interaction score.
(§2) Each set of experiments contains a defined set of negative controls in at least three replicates. Negative controls were chosen as such that there is a range of controls showing high-background luciferase activity (normally cytosolic proteins: Fabp5, Pex19) as well as medium-background luciferase activity (membrane-bound interactors: Pex7, GABBR2). Negative controls were averaged and the fold-change of luciferase activity was calculated. Using this method, we have a stringent cut-off and chose an interaction score >1 to be interacting proteins.
(§3) Our cut-off of 1 is based on fold-change difference in luciferase activity over averaged negative controls. Negative controls include cytosolic preys (which tend to promiscuously bind to many proteins), plasma membrane- and peroxisomal-prey proteins. In general, we chose stringent conditions by testing preys that tend to have high luciferase background with any bait tested, in order to generate high-confidence interaction data. […] Phosphorylated tyrosine residues on the receptor are typically docking sites for downstream cytoplasmic targets and recognized through SH2 or PTB domains^43.

[2] = test system: EGFR-Wt; assay: MaMTH EGFR-interactor screen, lentiviral preys against EGFR-wildtype bait (interaction score); format: cell-based, human; conditions: ratio of EGFR-Wt mean to EGFR-L858R mean interaction score
Method: as §1, §2, §3

[3] = target: T2, EGFR-Wt (Homo sapiens, UniProt P00533); assay: as above; format: cell-based; conditions: MaMTH interaction score of prey with EGFR-Wt bait, mean
T2 construct: with the advantage of testing full-length integral membrane proteins; (GGGGS)2 linker-Cub (human ubiquitin aa 35-76)-GAL4(1-147)-mNFkB(364-550) (C); expressed in transfected cells
Method: as §1, §2, §3

| Substance | EGFR-L858R mean [1] | Wt/L858R [2] | EGFR-Wt mean [3] |
| --- | --- | --- | --- |
| ABL1 | 0.50 | 3.76 | 1.89 |
| AKT1 | 3.11 | 1.32 | 4.12 |
| APP | 2.18 | 0.43 | 0.93 |
| ARRB1 | 6.57 | 0.41 | 2.72 |
| ASAP2 | 0.97 | 1.81 | 1.77 |
| BLK | 8.25 | 0.55 | 4.51 |
| CD3E | 0.76 | 1.83 | 1.39 |
| CD33 | 1.24 | 0.30 | 0.37 |
| DOK6 | 1.32 | 0.92 | 1.22 |
| EZR | 5.00 | 1.66 | 8.30 |
| FASLG | 1.15 | 0.74 | 0.85 |
| FGR | 4.99 | 0.52 | 2.62 |
| FRK | 5.36 | 0.53 | 2.84 |
| GAB2 | 1.27 | 0.76 | 0.97 |
| Gapdh | 3.79 | 0.91 | 3.44 |
| Grb2 |  | 0.28 |  |
| HCK | 3.96 | 1.00 | 3.94 |
| HDAC6 | 14.90 | 1.67 | 24.86 |
| HSP90AB1 | 14.81 | 1.86 | 27.58 |
| HSPA1A | 19.20 | 0.67 | 12.77 |
| HSPA8 | 39.20 | 0.64 | 25.00 |
| Hsp90aa1 | 97.06 | 0.76 | 74.20 |
| IKBKG | 6.55 | 1.26 | 8.28 |
| ITGB2 | 0.83 | 3.16 | 2.62 |
| ITSN2 | 0.60 | 3.50 | 2.09 |
| MAP4K1 | 1.76 | 0.86 | 1.51 |
| MAPK9 | 2.83 | 0.52 | 1.48 |
| MUC1 | 4.18 | 0.26 | 1.09 |

| Substance | EGFR-L858R mean [1] | Wt/L858R [2] | EGFR-Wt mean [3] |
| --- | --- | --- | --- |
| NCK2 | 4.87 | 0.89 | 4.35 |
| NR3C1 | 2.59 | 1.24 | 3.21 |
| NTRK2 | 0.97 | 1.61 | 1.57 |
| PIK3C2B | 4.30 | 0.29 | 1.23 |
| PIK3R2 | 3.25 | 0.36 | 1.17 |
| PIK3R3 | 2.40 | 0.64 | 1.55 |
| PIM1 | 1.51 | 1.27 | 1.91 |
| PRKCA | 7.70 | 1.45 | 11.13 |
| PTPN1 | 55.90 | 0.80 | 44.56 |
| PTPN6 | 1.43 | 1.05 | 1.51 |
| RELA | 1.18 | 1.08 | 1.27 |
| Rgs4 | 1.39 | 0.41 | 0.58 |
| S100A4 | 4.46 | 0.39 | 1.72 |
| SFN | 14.70 | 0.38 | 5.60 |
| SH2B1 | 3.76 | 0.79 | 2.99 |
| SOCS3 | 9.83 | 0.16 | 1.59 |
| STAT2 | 3.03 | 0.28 | 0.84 |
| STAT3 | 4.20 | 1.75 | 7.35 |
| STUB1 | 7.04 | 1.46 | 10.28 |
| TGFA | 1.59 | 1.59 | 2.52 |
| TLR2 | 1.69 | 0.34 | 0.58 |
| TRAF2 | 3.47 | 2.10 | 7.28 |
| YES1 | 1.23 | 1.55 | 1.91 |
| YWHAB | 10.44 | 0.71 | 7.39 |
| YWHAG | 1.42 | 0.93 | 1.32 |
| YWHAQ | 11.96 | 0.69 | 8.19 |
| YWHAZ | 13.94 | 0.54 | 7.58 |
